{"source": "patent US5593867", "about": "“Fluorerscence polarization detection of nucleic acid amplication” (Becton, Dickinson and Company)", "key": {"[1]": {"target": "EcoRI (Gln 111) (UniProt P00642 P00642:2-277, Gln111 (cleavage-deficient; parent residue not stated))", "assay": "FP; no enhancement of FP change without recognition site; EDTA buffer, 37 C", "conditions": "chain copies: 2"}, "[2]": {"target": "EcoRI (UniProt P00642 P00642:2-277)", "assay": "FP; no enhancement of FP change without recognition site; EDTA buffer, 37 C", "conditions": "tags: New England BioLabs; chain copies: 2"}}}
{"binder": "SEQ7/SEQ9 duplex lacking EcoRI site (dsDNA) DNA 1: ATCCGTATGGTGGATAACGTCTTTCA DNA 2: TGAAAGACGTTATCCACCATACGGAT", "values": [{"measurement": "binding result", "setting": "[1]", "result": "no binding"}, {"measurement": "binding result", "setting": "[2]", "result": "no binding"}]}
